From paper PMC3133606

Target: protective antigen, full-length wild type, nicked (nPA) and assembled into oligomers (Bacillus anthracis)
Assay: electron microscopy

In the case of “protective antigen, full-length wild type, nicked (nPA) and assembled into oligomers (natural protein)”, the fold less octamer with Δ47 LFN than with WT LFN was 10 fold.
